Measurements published in patent US7186459B2, “Liposome coated with polyhydroxyalkanoate and production method thereof” (priority 2001, dated 2007).

B1: YN2-C1: Purified PHA synthase derived from Pseudomonas cichorii YN2, from plasmid pYN2-C1 (SEQ ID NO: 2), 60.8 kDa (protein)
chain: MSNKSNDELKYQASENTLGLNPVVGLRGKDLLASARMVLRQAIKQPVHSVKHVAHFGLELKNVLLGKSGLQPTSDDRRFADPAWSQNPLYKRYLQTYLAWRKELHDWIDESNLAPKDVARGHFVINLMTEAMAPTNTAANPAAVKRFFETGGKSLLDGLSHLAKDLVHNGGMPSQVNMGAFEVGKSLGVTEGAVVFRNDVLELIQYKPTTEQVYERPLLVVPPQINKFYVFDLSPDKSLARFCLRNNVQTFIVSWRNPTKEQREWGLSTYIEALKEAVDVVTAITGSKDVNMLGACSGGITCTALLGHYAAIGENKVNALTLLVSVLDTTLDSDVALFVNEQTLEAAKRHSYQAGVLEGRDMAKVFAWMRPNDLIWNYWVNNYLLGNEPPVFDILFWNNDTTRLPAAFHGDLIELFKNNPLIRPNALEVCGTPIDLKQVTADIFSLAGTNDHITPWKSCYKSAQLFGGNVEFVLSSSGHIQSILNPPGNPKSRYMTSTEVAENADEWQANATKHTDSWWLHWQAWQAQRSGELKKSPTKLGSKAYPAGEAAPGTYVHER
modifications: Pseudomonas cichorii YN2 ; FERM BP-7375
B2: YN2-C2: Purified PHA synthase derived from Pseudomonas cichorii YN2, from plasmid pYN2-C2 (SEQ ID NO: 4), 61.5 kDa (protein)
chain: MRDKPARESLPTPAKFINAQSAITGLRGRDLVSTLRSVAAHGLRHPVHTARHALKLGGQLGRVLLGDTLHPTNPQDRRFDDPAWSLNPFYRRSLQAYLSWQKQVKSWIDESNMSPDDRARAHFAFALLNDAVSPSNSLLNPLAIKEIFNSGGNSLVRGIGHLVDDLLHNDGLPRQVTRHAFEVGKTVATTTGAVVFRNELLELIQYKPMSEKQYSKPLLVVPPQINKYYIFDLSPHNSFVQFALKNGLQTFVISWRNPDVRHREWGLSTYVEAVEEAMNVCRAITGAREVNLMGACAGGLTIAALQGHLQAKRQLRRVSSATYLVSLLDSQLDSPATLFADEQTLEAAKRRSYQKGVLEGRDMAKVFAWMRPNDLIWSYFVNNYLMGKEPPAFDILYWNNDNTRLPAALHGDLLDFFKHNPLSHPGGLEVCGTPIDLQKVTVDSFSVAGINDHITPWDAVYRSTLLLGGERRFVLANSGHVQSILNPPNNPKANYLEGAKLSSDPRAWYYDAKPVDGSWWTQWLGWIQERSGAQKETHMALGNQNYPPMEAAPGTYVRVR
modifications: Pseudomonas cichorii YN2 ; FERM BP-7375

Tested on: PHA synthesizing enzyme
Test: Activity of purified PHA synthesizing enzyme (released CoA coloured with 5,5'-dithiobis-(2-nitrobenzoic acid), absorbance at 412 nm)
Type: biochemical, Pseudomonas cichorii YN2
Conditions: for Activity: 1 U = amount of enzyme releasing 1 μmol CoA per minute, substrate 3-hydroxyoctanoyl CoA, 30° C.; for Specific Activity: protein by Micro BCA
Source text: A various kinds of reported methods may be used for measuring activity of the PHA synthesizing enzyme, and for example, the activity may be measured by the following method in which as a measurement principle, CoA released in the process through which 3-hydroxyacyl CoA is polymerized under the catalytic action of the PHA synthesizing enzyme to form PHA is colored with 5,5′-dithiobis-(2-nitrobenzoic acid) to carry out measurements. Reagent 1: bovine serum albumin (manufactured by Sigma Co., Ltd.) is dissolved in a 0.1 M Tris hydrochloric buffer (pH 8.0) in the concentration of 3.0 mg/ml, Reagent 2: 3-hydroxyoctanoyl CoA is dissolved in a 0.1 M Tris hydrochloric buffer (pH 8.0) in the concentration of 3.0 mM, Reagent 3: trichloroacetic acid is dissolved in a 0.1 M Tris hydrochloric buffer (pH 8.0) in the concentration of 10 mg/ml, and Reagent 4: 5,5′-dithiobis-(2-nitrobenzoic acid) is dissolved in a 0.1 M Tris hydrochloric buffer (pH 8.0) in the concentration of 2.0 mM. First reaction (PHA synthesis reaction): 100 μl of Reagent 1 is added in 100 μl of sample (enzyme) solution and mixed together, and is pre-incubated at 30° C. for a minute. 100 μl of Reagent 2 is added thereto and mixed together, and is incubated at 30° C. for 1 to 30 minutes, followed by adding thereto Reagent 3 to stop the reaction. Second reaction (reaction of coloring free CoA): the first reaction solution of which reaction has been stopped is subjected to centrifugation (15,000×g, 10 minutes), and 500 μl of Reagent 4 is added in 500 μl of supernatant liquid of this solution, and is incubated at 30° C. for 10 minutes, followed by measuring an absorbance at 412 nm. Calculation of enzyme activity: the amount of enzyme for releasing 1 μmol of CoA per minute is defined as one unit (U).
The activity of each purified enzyme was measured by the aforesaid method. Also, the concentrations of proteins in the sample were measured by the Micro BCA protein quantification reagent kit (Pierce Chemical Co., Ltd.).

Molecule	Activity [U/mL]	Specific Activity [U/mg Protein]
B1	2.1	4.1
B2	1.5	3.6
